Measurements published in the supplement of paper PMC10219994.
± gives the standard deviation of the averaged measurements.

B1: library; a variant is named by its letters at N, in order (parent)
chain: GAGACCGCAACTGAAAAGTTGTGGNNNNNATAGTGAGTCGCTGCCTGCAAAGACACAACT

Variants of: B1
Experiment: ligation selection enrichment (abundance after / before one-round selection) (fold); higher = more template-directed ligation activity
Details: with T7Psub CACGGAUGCUAAUACGACUCACUAUA; MgCl2 25 mM; 42 °C; 4 h; pH 8.5
Procedure, shortened: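 Two independent reactions combined a T7-transcribed RNA ligase library with five randomized core positions (0.75 μM) and RNA substrate (6 μM) in 50 mM EPPS pH 8.5, 25 mM MgCl2, run for 4 h at 42 °C. The ligated products were sequenced on a MiSeq, and only reads with quality ≥30 at all randomized positions were counted. Enrichment is the abundance after ligation divided by the abundance before ligation.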
Work on GCATA yielded a ligation selection enrichment of 0.204 ± 0.0065. GCATG gave a ligation selection enrichment of 0.335 ± 0.012. In the case of AGTGA, the ligation selection enrichment is reported as 0.842 ± 0.093. AGTGC gave a ligation selection enrichment of 0.186 ± 0.0091. AGTGG was tested, and the ligation selection enrichment was 0.414 ± 0.077. TCACA was tested, and the ligation selection enrichment was 0.115 ± 0.057. With TGGAG the ligation selection enrichment was 1.119 ± 0.0088. For CAATG, the ligation selection enrichment was 0.249 ± 0.03. TTACC was tested, and the ligation selection enrichment was 0.142 ± 0.02. Work on GTTAT yielded a ligation selection enrichment of 1.54 ± 0.28. Work on GTTAC yielded a ligation selection enrichment of 0.3144 ± 0.0017. Variant GTTAA has a ligation selection enrichment of 0.876 ± 0.12. With GATTA the ligation selection enrichment was 0.278 ± 0.094. Work on GATTG yielded a ligation selection enrichment of 1.47 ± 0.2. GATTC gave a ligation selection enrichment of 0.183 ± 0.0076. AGGTT was tested, and the ligation selection enrichment was 0.245 ± 0.075. Variant AGGTG has a ligation selection enrichment of 0.279 ± 0.036. In the case of ACAAA, the ligation selection enrichment is reported as 0.227 ± 0.0041. CCAGG was tested, and the ligation selection enrichment was 0.178 ± 0.009. In the case of ACTGC, the ligation selection enrichment is reported as 0.137 ± 0.025. GACAA gave a ligation selection enrichment of 0.256 ± 0.04. GACAC was tested, and the ligation selection enrichment was 0.176 ± 0.0093. For GACAG, the ligation selection enrichment was 0.419 ± 0.07. Work on CGGGA yielded a ligation selection enrichment of 0.229 ± 0.025. In the case of CGGGT, the ligation selection enrichment is reported as 0.147 ± 0.034. With AAATA the ligation selection enrichment was 0.18 ± 0.034. TATCG gave a ligation selection enrichment of 0.999 ± 0.23. Variant GATCT has a ligation selection enrichment of 0.306 ± 0.085. GATCG gave a ligation selection enrichment of 0.78 ± 0.097. For CTAAC, the ligation selection enrichment was 0.146 ± 0.054. With CTAAT the ligation selection enrichment was 1.29 ± 0.25. AAGAA showed a ligation selection enrichment of 0.428 ± 0.044. TTCTA showed a ligation selection enrichment of 0.183 ± 0.035. TTCTG gave a ligation selection enrichment of 0.954 ± 0.089. CTGTG was tested, and the ligation selection enrichment was 0.195 ± 0.072. Variant CTGTT has a ligation selection enrichment of 0.3 ± 0.027. Variant ACGTC has a ligation selection enrichment of 0.172 ± 0.045. In the case of GCCGC, the ligation selection enrichment is reported as 0.205 ± 0.036. With GCCGA the ligation selection enrichment was 1.35 ± 0.035. Work on AACAT yielded a ligation selection enrichment of 0.729 ± 0.14. AGTTC showed a ligation selection enrichment of 0.176 ± 0.014. For AGAGG, the ligation selection enrichment was 0.288 ± 0.045. For CAAAT, the ligation selection enrichment was 0.595 ± 0.18. GTCAT was tested, and the ligation selection enrichment was 0.373 ± 0.0027. GTCAG gave a ligation selection enrichment of 0.628 ± 0.038. In the case of GCGAA, the ligation selection enrichment is reported as 1.35 ± 0.24. With GCGAG the ligation selection enrichment was 1.37 ± 0.06. GCGAT showed a ligation selection enrichment of 21.9 ± 4.1. For TGAAT, the ligation selection enrichment was 3.36 ± 0.95. Work on TCTGG yielded a ligation selection enrichment of 0.417 ± 0.035. With CCCTT the ligation selection enrichment was 0.213 ± 0.065. Work on CCCTC yielded a ligation selection enrichment of 0.14 ± 0.025. CCCTA showed a ligation selection enrichment of 0.186 ± 0.0061. Work on GTCTG yielded a ligation selection enrichment of 0.554 ± 0.068. In the case of AAAGG, the ligation selection enrichment is reported as 0.44 ± 0.026. With CCCGA the ligation selection enrichment was 0.405 ± 0.013. With CCCGC the ligation selection enrichment was 0.163 ± 0.053. In the case of AGGCT, the ligation selection enrichment is reported as 0.587 ± 0.3. In the case of GTAAA, the ligation selection enrichment is reported as 0.321 ± 0.067. ACCTG gave a ligation selection enrichment of 0.4917 ± 0.0012. ACCTC showed a ligation selection enrichment of 0.0933 ± 0.036. GGTTT was tested, and the ligation selection enrichment was 0.452 ± 0.082. TGCGG showed a ligation selection enrichment of 0.221 ± 0.0095. Work on TGCGA yielded a ligation selection enrichment of 2.41 ± 0.15. TGCGT was tested, and the ligation selection enrichment was 0.168 ± 0.021. Work on AGTCA yielded a ligation selection enrichment of 0.891 ± 0.1. For GAGTG, the ligation selection enrichment was 0.274 ± 0.035. GAGTT showed a ligation selection enrichment of 0.235 ± 0.074. Work on CCTAG yielded a ligation selection enrichment of 0.356 ± 0.004. In the case of TTTGG, the ligation selection enrichment is reported as 0.466 ± 0.024. Work on ATACC yielded a ligation selection enrichment of 0.169 ± 0.016. Variant CATGC has a ligation selection enrichment of 0.1307 ± 0.00014. Variant CATGA has a ligation selection enrichment of 0.381 ± 0.068. For CCCCA, the ligation selection enrichment was 0.14 ± 0.0052. CCCCT gave a ligation selection enrichment of 0.419 ± 0.21. ACAGT gave a ligation selection enrichment of 0.175 ± 0.012. AGATA was tested, and the ligation selection enrichment was 0.533 ± 0.16. In the case of TTGGT, the ligation selection enrichment is reported as 0.212 ± 0.12. With GGCCT the ligation selection enrichment was 0.408 ± 0.092. Variant CAGGG has a ligation selection enrichment of 0.186 ± 0.021. CAGGC showed a ligation selection enrichment of 0.244 ± 0.12. Variant CAGGT has a ligation selection enrichment of 0.108 ± 0.023. Work on TTTTA yielded a ligation selection enrichment of 0.205 ± 0.0097. With TTTTG the ligation selection enrichment was 1.05 ± 0.27.
